Assay results as given in patent US20240076386A1 (Pfizer, published 2024).
Positions count from the first letter of the chain named.

T1: human E-selectin, cell-surface expressed (human, UniProt P16581 22-610)
T1 construct: also called CHO-human E-selectin cells; human CHO-E
T1 sequence: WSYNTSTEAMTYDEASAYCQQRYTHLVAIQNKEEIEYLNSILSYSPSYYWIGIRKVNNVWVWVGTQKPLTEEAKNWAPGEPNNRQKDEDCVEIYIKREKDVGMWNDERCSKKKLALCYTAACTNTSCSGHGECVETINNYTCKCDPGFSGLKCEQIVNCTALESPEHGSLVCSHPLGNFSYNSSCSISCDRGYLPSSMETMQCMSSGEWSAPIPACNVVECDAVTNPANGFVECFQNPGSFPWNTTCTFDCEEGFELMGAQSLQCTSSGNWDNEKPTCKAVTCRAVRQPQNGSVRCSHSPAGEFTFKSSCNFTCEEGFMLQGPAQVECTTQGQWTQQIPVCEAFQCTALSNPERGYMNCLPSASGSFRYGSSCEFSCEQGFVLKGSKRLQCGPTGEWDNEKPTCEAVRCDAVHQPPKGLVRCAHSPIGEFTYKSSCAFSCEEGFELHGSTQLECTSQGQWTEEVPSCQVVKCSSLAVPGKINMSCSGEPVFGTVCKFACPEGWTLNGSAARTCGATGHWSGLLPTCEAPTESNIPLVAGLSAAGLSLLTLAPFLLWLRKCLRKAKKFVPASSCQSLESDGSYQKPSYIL

T2: human E-selectin coated on the plate of the competition binding ELISA (human, UniProt P16581 22-556, limits assumed)
T2 sequence (looked up): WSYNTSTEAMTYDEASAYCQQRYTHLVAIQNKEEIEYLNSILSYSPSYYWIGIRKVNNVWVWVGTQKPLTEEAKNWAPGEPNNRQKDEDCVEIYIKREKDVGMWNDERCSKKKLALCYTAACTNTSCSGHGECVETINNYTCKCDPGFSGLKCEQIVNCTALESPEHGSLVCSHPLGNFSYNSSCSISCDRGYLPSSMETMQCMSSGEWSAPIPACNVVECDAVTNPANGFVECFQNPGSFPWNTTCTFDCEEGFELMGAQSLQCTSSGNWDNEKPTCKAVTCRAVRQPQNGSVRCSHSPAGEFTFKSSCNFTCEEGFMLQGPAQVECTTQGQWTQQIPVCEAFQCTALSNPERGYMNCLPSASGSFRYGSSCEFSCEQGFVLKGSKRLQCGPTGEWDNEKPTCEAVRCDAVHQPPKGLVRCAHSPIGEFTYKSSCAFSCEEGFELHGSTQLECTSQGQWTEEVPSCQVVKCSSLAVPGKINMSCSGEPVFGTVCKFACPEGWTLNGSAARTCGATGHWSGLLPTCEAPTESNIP

B1: humanized anti-E-selectin antibody 0841 (antibody, human IgG1, kappa, V domains shown)
VH: EVQLVESGGGLVQPGGSLRLSCAASGYNIRSSYMHWVRQAPGKGLEWVARIDPANGNTIYAEKFKIRFTISADNAKNSAYLQMNSLRAEDTAVYYCAMDLYSTSEYWGQGTLVTVSS
VL: DIQMTQSPSSLSASVGDRVTITCKTSQNINRYLNWYQQKPGKAPKLLIYNANSLQTGVPSRFSGSGSGTDFTLTISSLQPEDFATYFCLQDNSWPLTFGQGTKVEIKR
notes: effector-null human IgG1, kappa
B2: optimized anti-E-selectin antibody 1282 (antibody, human IgG1, kappa, V domains shown)
VH: B1 VH with N28A, S32A, A61V, E62D, K63S, F64V, K65E, I66G
VL: B1 VL with N30E, N50A, N52S, T56S, S93A
notes: as for B1
B3: optimized anti-E-selectin antibody 1284 (antibody, human IgG1, kappa, V domains shown)
VH: B1 VH with N28A, S32A, A61V, K63S, F64V, K65E, I66G
VL: B1 VL with N30E, N50A, N52S, T56S, S93A
notes: as for B1
B4: optimized anti-E-selectin antibody 1444 (antibody, human IgG1, kappa, V domains shown)
VH: B1 VH with N28A, S32A, A61V, E62D, K63S, F64V, K65T, I66G
VL: B1 VL with N30E, N50A, N52S, T56S, S93A
notes: as for B1
B5: optimized anti-E-selectin antibody 1448 (antibody, human IgG1, kappa, V domains shown)
VH: B1 VH with N28A, S32A, A61V, E62D, K63S, F64V, I66E
VL: B1 VL with N30E, N50A, N52S, T56S, S93A
notes: as for B1

target: T1, human E-selectin, cell-surface expressed; assay: flow cytometry, CHO cells
Protocol: CHO cell lines expressing human E-selectin were detached from confluent flasks using enzyme-free Cell Dissociation Buffer (GIBCO, 13151014). Growth media was immediately added to the detached cells, then centrifuged at 300×g for 5 minutes at room temperature to pellet the cells. The cells were then resuspended in cold CHO buffer consisting of phosphate buffered saline (PBS), pH 7.4 containing bovine serum albumin (BSA; Sigma-Aldrich, A³⁰⁵⁹) at final concentration of 1%, calcium chloride at final concentration of 1 mM, and sodium azide at a final concentration of 0.1%.
Binding studies with CHO cells were performed in duplicate using two rows of a 96-well round bottom plate, whereas, binding studies with primary endothelial cells were performed in a single row of a 96-well V-bottom plate. The plates were centrifuged at 300×g for 2 minutes at 4° C. and the cells were resuspended and blocked by incubation in the CHO buffer for 10 minutes on wet ice. After incubation, the cells were centrifuged at 300×g for 2 minutes at 4° C. to remove the buffer. […] After incubation with the antibody, the cells were washed three times by centrifugation at 300×g for 1 minute at 4° C. and resuspended in cold CHO buffer. The washed cells were resuspended and incubated with 100 μL of 1:1000 dilution of AlexaFluor647-conjugated goat anti-human F(ab′)₂ Fragment (Fcγ fragment specific antibody, [Jackson Innnnunoresearch, 109-606-170] for 45 minutes (CHO cells) or 30 minutes (endothelial cells) on wet ice. The cells were washed three or four times prior to resuspension in CHO buffer for flow cytometric analysis. A Becton Dickinson LSRFortessa instrument using 640 nanometer laser line was used to acquire cell fluorescence data. Geometric mean fluorescence of cells was analyzed by FlowJo software package (FlowJo, LLC) and plotted against antibody concentration. The estimated EC₅₀ values were calculated using nonlinear regression analysis in the Prism suite (GraphPad, version 8).

B1 and B2 are within 1.5-fold of each other in EC50: 710 pM for the first, 850 pM for the second.

B3 and B4 are within 1.5-fold of each other in EC50: 640 pM for the first, 660 pM for the second.

With B5 the EC50 was 750 pM.

target: T2, human E-selectin coated on the plate of …; assay: competition ELISA (Biotin-164 competitive ELISA) on plate-coated human E-selectin; competitor: biotinylated antibody 0164, OD450; forced degradation samples T0, T2, T4 weeks at 40 C in Tris, His or Glu buffer
Protocol: To additionally asses stability of the forced degradation samples, the activity of the stressed samples was evaluated in a competition binding ELISA. […] The human E-selectin was stored in PBS with Ca/Mg at 500 μg/mL and was diluted with PBS with Ca/Mg to a concentration of 1 μg/mL. This was added to a 384 well MaxiSorp plate, sealed and incubated at 4° C. with gentle shaking overnight. The next day the reagents in each well were removed, followed by addition of 50 μL of blocking buffer (1% BSA in PBS with Ca/Mg) to each well. The wells were sealed and incubated at room temperature for about 1 hour with gentle shaking.
Next, the wash plate was blocked with 1% BSA with PBST (0.05% Tween) on a […] for 3 cycles using 80 μL for each wash. The plate was tapped on a paper towel to drain. […] The wash step was repeated with 3 cycles of 2 washes. Then, dilute Streptavidin-HRP (˜1/7500 diluted in blocking buffer) was added to each well and the plate was incubated at room temperature with gentle shaking ˜40 minutes to 1 hour. The wash step was again repeated with 3 cycles of 2 washes, tapped dry and followed by the addition of 25 μL of TMB substrate (one component HRP microwell substrate). This was followed by the addition of 25 μL of 0.18 M sulfuric acid to stop the reaction when the color reached saturation (determined by observing the color development). The OD450 measurement of the plate was then read on the Envision plate reader, and the data was analyzed with GraphPad, Prism7.

B2 and B3 are the same in “IC50 (read off the curve)” value: roughly 10000 pM for the first, roughly 10000 pM for the second.

B4 and B5 are within 1.5-fold of each other in “IC50 (read off the curve)” value: roughly 10000 pM for the first, roughly 9000 pM for the second.
